# Assay results: patent US20140017790A1, “CONTROL AGENT FOR CONTROLLING UNDIFFERENTIATED STATE AND USE THEREOF” (RIKEN, priority 2011, published 2014)
# B1: CCL2: mouse recombinant CCL2 (MCP-1, #479-JE-010, R&D Systems); in Examples 1, 3, 4(1), 5 mouse CCL2 (SEQ ID NO: 3) overexpressed from Ccl2 expression vector (protein, listed as Mus musculus)
# chain: MQVPVMLLGLLFTVAGWSIHVLAQPDAVNAPLTCCYSFTSKMIPMSRLESYKRITSSRCPKEAVVFVTKLKREVCADPKKEWVQTYIKNLDRNQMRSEPTTLFKTASALRSSAPLNVKLTRKSEANASTTFSTTTSSTSVGVTSVTVN
# Tests used:
# Type in all cases: cell-based
# mouse iPS cells = assay: flow cytometry analysis of Nanog-GFP positive cell population
# Procedure: In the present example, the above-described DMEM to which the LIF and mouse recombinant CCL2 (MCP-1, #479-JE-010, R&D Systems) had been added was used. In the medium, the final concentration of the LIF was set to 25 units/ml, and the concentration of the recombinant CCL2 was set to 500 ng/ml. The amount of the medium to be added to a 12-well dish was set to 1 ml per well. On the other hand, in a comparative example, the above-described DMEM containing the LIF but not containing the CCL2 was used. The final concentration of the LIF was set to 25 units/ml.
# The mouse iPS cells cultured under feeder free conditions were cultured in the medium of the example and the medium of the comparative example, respectively. The mouse iPS cells were seeded in the 12-well dish at a density of 6×10^4 cells/well.
# The flow cytometry analysis was carried out in the following manner. After the mouse iPS cells had been cultured in the above described manner, the cells were collected from the wells, and were suspended again in an ES medium containing 25 units/ml of LIF. As the ES medium, a DMEM (containing glucose at a high concentration and containing no sodium pyruvate) containing 15% FBS, 0.1 mmol/l NEAA, and 0.1 mmol/l 2-Mercaptoethanol was used. Then, this cell suspension was applied to a flow cytometer (trade name: BD FACSAria (registered trademark) II, Becton, Dickinson and Company), and analyzed in accordance with the protocol of the flow cytometer. At this time, as a cell population having pluripotency, i.e., undifferentiated cell population, a Nanog-GFP-positive region sorted out based on FITC-A>10^4 was monitored. The raw data was analyzed by a program (FlowJo, ver. 7), and plotted in the form of density plot. The iPS cells were produced from MEF of a modified mouse with a GFP protein being incorporated in the promoter region of the Nanog gene. Thus, when the cells expressed the Nanog gene, it means the cells were Nanog-GFP positive, so that the GFP was produced and this GFP was detected by the FACS. […]
# STAT3 = assay: Western blotting, phosphorylation of STAT3 in mouse iPS cells; details: CCL2 overexpressed, 24 hours, relative to negative control
# Procedure: The mouse iPS cells transfected with the Ccl2 expression vector were cultured for 24 hours in the same manner as in Example 1. After the culture, the mouse iPS cells were washed with PBS, and then were suspended in 100 μl of a mammalian m-PER lysis buffer. The suspension was passed through a 26-gauge needle for 10 minutes to homogenize the cells. Then, the suspension was centrifuged at 13,000 rpm and 4° C. for 5 minutes, and the supernatant was collected. The protein concentration in the supernatant was measured using a Pierce (registered trademark) BCA Protein assay (trade name, Thermo Scientific). Next, the supernatant was subjected to Western blotting to detect a target protein. […] Then, luminescence on the membrane was detected using a Fuji LAS-3000 luminescent image analyzer.
# As the primary antibody, an anti-phosphorylated STAT3 antibody (anti-pSTAT3 antibody, commercially available from CST, #9145) was used for the phosphorylated STAT3 (pSTAT3), an anti-STAT3 antibody (CST, #9132) was used for the STAT3 protein, and an anti-GAPDH antibody (Santa Cruz Biotechnology Inc, #25778) was used for GAPDH, which is an expression control. […] Then, the ratio of the phosphorylated STAT3 to the non-phosphorylated STAT3 (pSTAT3/STAT3) was determined. […]
# human iPS cells = assay: cell adhesion and growth, number of human iPS cells over time; details: bFGF(-)/CCL2(+) versus bFGF(+)/CCL2(-)
# Procedure: Human iPS cells were cultured under feeder conditions in the same manner as in Example 8, and the number of cells was measured every 48 hours. As a negative control, the same procedures were carried out except that bFGF was added instead of the CCL2. FIG. 17 is a graph showing the change with time in the number of the human iPS cells. The vertical axis indicates the number of cells (10^4 cells/ml), and the horizontal axis indicates the culture time (hr). CCL2(+) indicates the results obtained under the conditions of bFGF(−)/CCL2(+), and CCL2(−) indicates the results obtained under the conditions of bFGF(+)/CCL2(−).
molecule,measurement,setting,value
B1,proportion of the Nanog-GFP positive mouse iPS cells,"mouse iPS cells; CCL2 500 ng/ml, LIF 25, 50, 100, 500 and 1000 units/ml, versus no CCL2",increased
same,proportion of the Nanog-GFP positive mouse iPS cells,"mouse iPS cells; recombinant CCL2 500 ng/ml + LIF 25 units/ml, feeder free, 24 hours, comparative medium (LIF only) 37.6%",67.3%
same,number of undifferentiated cells having pluripotency (Nanog-GFP positive),mouse iPS cells; recombinant CCL2 500 ng/ml added to PI3K inhibitor 5 ng/ml + LIF 25 units/ml,further increase
same,ratio of phosphorylated STAT3 to non-phosphorylated STAT3 (pSTAT3/STAT3),STAT3,increased
same,number of the cells,human iPS cells; as of 48 hours,greater
same,growth potential,human iPS cells; as of 144 hours (6th day),improved further
